Test results from patent US6660837B1, “Modified protein derived from protein kinase N” (Kirin Beer Kabushiki Kaisha, priority 1995, dated 2003).

Molecular target: T1, head-rod domain of NFL (Homo sapiens, UniProt P07196)
T1 construct: made in house; host or cells: bacteria (bacterially synthesized)
T1 sequence (P07196 1-349): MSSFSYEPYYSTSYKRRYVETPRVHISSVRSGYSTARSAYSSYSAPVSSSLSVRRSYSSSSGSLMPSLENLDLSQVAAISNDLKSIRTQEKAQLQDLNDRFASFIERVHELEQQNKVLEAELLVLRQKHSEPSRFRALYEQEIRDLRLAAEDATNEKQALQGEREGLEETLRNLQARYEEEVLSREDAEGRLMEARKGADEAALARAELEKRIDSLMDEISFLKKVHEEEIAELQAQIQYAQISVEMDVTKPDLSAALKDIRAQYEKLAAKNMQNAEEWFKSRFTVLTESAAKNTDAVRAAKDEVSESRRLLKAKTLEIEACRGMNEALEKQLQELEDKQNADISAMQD
Test: In vitro binding of in vitro translated PKN to GST-NFL
Settings: GST pull-down
Excerpt: For in vitro transcription, truncated human PKN was made as follows; Expression vector pPKNN2 for N-terminal region of PKN (the amino acid sequence 1-474 in SEQ ID NO: 1, this region was designated as “PKNN2”) was made by digesting phPKN-H4 (a plasmid containing human PKN cDNA in pBluescript II SK (Mukai, H. & Ono, Y., Biochem. Biophys. Res. Commun. 199, 897-904 (1994)) with Bst EII, and filling in the ends with T4 DNA polymerase, and self-legation. This removed the original amino acid sequences C-terminal downstream of the BstEII site (1425 nucleotides from initiating ATG codon), and a stop codon was created in the plasmid sequence. Fragment coding for the amino acid sequence 614-942 in SEQ ID NO: 1, (This region was designated as “PKNC2”) containing the conserved catalytic domain of human PKN was made by PCR amplification. Expression vector pPKNC2 was made by subcloning this fragment into pRc/CMV (Invitfrogen Corp.). These plasmids were linealized by cutting with XbaI, and CRNA was transcribed using T7 RNA polymerase. For NFL, pBL (Nakagawa, T. et al., J. Cell. Biol. 129, 411-429 (1995)) was linealized by cutting with HindIII, and CRNA was transcribed using T3 RNA polymerase. For in vitro translation, these cRNAs were translated in rabbit reticulocyte lysate (Promega) in the presence of [^35S] methionine. […]

- binding to head-rod domain of NFL in vitro: bound
Substance: N-terminal region of PKN: N-terminal regulatory region of human PKN: 1-540 (PKNN1) in two-hybrid and GST fusions, 1-474 when in vitro translated
